Data reported in patent US20210246166A1 (Bayer, published 2021).
Bridge positions count the residues as written; N and C are the ends. Square brackets hold non-standard residues; d marks the D form. Ends that are not written are not given here. Oic = O=C(O)[C@@H]1C[C@@H]2CCCC[C@@H]2N1; Nva(3-Et) = CCC(CC)[C@H](N)C(=O)O; tBuAla = CC(C)(C)C[C@H](N)C(=O)O; Pen = CC(C)(S)[C@H](N)C(=O)O; NMeC = CN[C@@H](CS)C(=O)O; Ac4c = NC1(C(=O)O)CCC1; Sar = CNCC(=O)O

T1: Recombinant human MASP1 enzyme (fragment corresponding to amino acids 297-699, C-terminal His Tag) (human, UniProt P48740 297-699)
T1 sequence: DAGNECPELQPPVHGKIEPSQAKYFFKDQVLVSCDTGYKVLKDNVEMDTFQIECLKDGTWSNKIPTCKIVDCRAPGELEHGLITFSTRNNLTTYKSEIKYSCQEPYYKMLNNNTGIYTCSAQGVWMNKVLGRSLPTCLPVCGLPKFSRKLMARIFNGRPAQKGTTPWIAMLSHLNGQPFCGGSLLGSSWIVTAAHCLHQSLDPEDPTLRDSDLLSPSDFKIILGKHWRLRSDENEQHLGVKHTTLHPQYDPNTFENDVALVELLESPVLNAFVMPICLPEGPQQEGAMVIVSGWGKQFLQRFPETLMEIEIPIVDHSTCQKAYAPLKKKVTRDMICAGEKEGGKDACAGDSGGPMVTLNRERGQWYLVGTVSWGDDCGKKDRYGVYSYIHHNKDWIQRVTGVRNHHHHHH

B1: (ACBA)-IC+SRS-((tBu)A)-PPI-(Pen)+I-NH2 (peptide)
peptide: [Ac4c]ICSRS[tBuAla]PPI[Pen]I-NH2
modifications: disulfide 3-11; N-terminus assumed
SMILES: CC[C@H](C)[C@H](NC(=O)[C@H]1NC(=O)[C@H]([C@@H](C)CC)NC(=O)[C@@H]2CCCN2C(=O)[C@@H]2CCCN2C(=O)[C@H](CC(C)(C)C)NC(=O)[C@H](CO)NC(=O)[C@H](CCCNC(=N)N)NC(=O)[C@H](CO)NC(=O)[C@@H](NC(=O)[C@@H](NC(=O)C2(N)CCC2)[C@@H](C)CC)CSSC1(C)C)C(N)=O
B2: AIC+SRSLPP-((S)-2-amino-3-ethyl-pentanoic acid)-C+IPD-NH2 (peptide)
peptide: AICSRSLPP[Nva(3-Et)]CIPD-NH2
modifications: disulfide 3-11; N-terminus assumed
SMILES: CCC(CC)[C@@H]1NC(=O)[C@@H]2CCCN2C(=O)[C@@H]2CCCN2C(=O)[C@H](CC(C)C)NC(=O)[C@H](CO)NC(=O)[C@H](CCCNC(=N)N)NC(=O)[C@H](CO)NC(=O)[C@@H](NC(=O)[C@@H](NC(=O)[C@H](C)N)[C@@H](C)CC)CSSC[C@@H](C(=O)N[C@H](C(=O)N2CCC[C@H]2C(=O)N[C@@H](CC(=O)O)C(N)=O)[C@@H](C)CC)NC1=O
B3: AIC+SRS-((tBu)A)-PPIC+IDD-OH (peptide)
peptide: AICSRS[tBuAla]PPICIDD-OH
modifications: disulfide 3-11; N-terminus assumed
SMILES: CC[C@H](C)[C@H](NC(=O)[C@H](C)N)C(=O)N[C@H]1CSSC[C@@H](C(=O)N[C@H](C(=O)N[C@@H](CC(=O)O)C(=O)N[C@@H](CC(=O)O)C(=O)O)[C@@H](C)CC)NC(=O)[C@H]([C@@H](C)CC)NC(=O)[C@@H]2CCCN2C(=O)[C@@H]2CCCN2C(=O)[C@H](CC(C)(C)C)NC(=O)[C@H](CO)NC(=O)[C@H](CCCNC(=N)N)NC(=O)[C@H](CO)NC1=O
B4: FIC+SRS-((tBu)A)-PPI-(Pen)+IPD-NH2 (peptide)
peptide: FICSRS[tBuAla]PPI[Pen]IPD-NH2
modifications: disulfide 3-11; N-terminus assumed
SMILES: CC[C@H](C)[C@H](NC(=O)[C@@H](N)Cc1ccccc1)C(=O)N[C@H]1CSSC(C)(C)[C@@H](C(=O)N[C@H](C(=O)N2CCC[C@H]2C(=O)N[C@@H](CC(=O)O)C(N)=O)[C@@H](C)CC)NC(=O)[C@H]([C@@H](C)CC)NC(=O)[C@@H]2CCCN2C(=O)[C@@H]2CCCN2C(=O)[C@H](CC(C)(C)C)NC(=O)[C@H](CO)NC(=O)[C@H](CCCNC(=N)N)NC(=O)[C@H](CO)NC1=O
B5: GIC+SRS-((tBu)A)-P-(Oic)-I-((N-Me)C)+IPD-NH2 (peptide)
peptide: GICSRS[tBuAla]P[Oic]I[NMeC]IPD-NH2
modifications: disulfide 3-11; N-terminus assumed
SMILES: CC[C@H](C)[C@H](NC(=O)CN)C(=O)N[C@H]1CSSC[C@@H](C(=O)N[C@H](C(=O)N2CCC[C@H]2C(=O)N[C@@H](CC(=O)O)C(N)=O)[C@@H](C)CC)N(C)C(=O)[C@H]([C@@H](C)CC)NC(=O)[C@@H]2C[C@@H]3CCCC[C@@H]3N2C(=O)[C@@H]2CCCN2C(=O)[C@H](CC(C)(C)C)NC(=O)[C@H](CO)NC(=O)[C@H](CCCNC(=N)N)NC(=O)[C@H](CO)NC1=O
B6: ((N-Me)G)-GIC+SRS-((tBu)A)-PPI-(Pen)+IPD-NH2 (peptide)
peptide: [Sar]GICSRS[tBuAla]PPI[Pen]IPD-NH2
modifications: disulfide 4-12; N-terminus assumed
SMILES: CC[C@H](C)[C@H](NC(=O)CNC(=O)CNC)C(=O)N[C@H]1CSSC(C)(C)[C@@H](C(=O)N[C@H](C(=O)N2CCC[C@H]2C(=O)N[C@@H](CC(=O)O)C(N)=O)[C@@H](C)CC)NC(=O)[C@H]([C@@H](C)CC)NC(=O)[C@@H]2CCCN2C(=O)[C@@H]2CCCN2C(=O)[C@H](CC(C)(C)C)NC(=O)[C@H](CO)NC(=O)[C@H](CCCNC(=N)N)NC(=O)[C@H](CO)NC1=O

target: Recombinant human MASP2 enzyme (fragment corresponding to amino acids 297-686, C-terminal His Tag) (human, UniProt O00187 297-686); assay: cell-based or functional assay
Sequence (O00187 other isoform, or with tags, fused parts or gaps limits assumed): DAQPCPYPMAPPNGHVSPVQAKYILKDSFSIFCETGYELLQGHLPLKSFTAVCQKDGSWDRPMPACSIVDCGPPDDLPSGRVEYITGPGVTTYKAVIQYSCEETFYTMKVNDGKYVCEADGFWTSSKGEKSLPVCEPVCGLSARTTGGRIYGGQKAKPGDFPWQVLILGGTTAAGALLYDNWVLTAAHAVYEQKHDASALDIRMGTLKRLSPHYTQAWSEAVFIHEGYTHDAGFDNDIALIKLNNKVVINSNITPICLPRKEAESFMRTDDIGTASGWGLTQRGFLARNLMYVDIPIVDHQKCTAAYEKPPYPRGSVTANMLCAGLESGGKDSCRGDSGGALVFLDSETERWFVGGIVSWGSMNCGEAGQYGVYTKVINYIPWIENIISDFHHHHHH

Row | Binder | human MASP2 IC50
1 | B1 | 15 nM
2 | B2 | 51 nM
3 | B3 | 61 nM
4 | B4 | 73 nM
5 | B5 | 740 nM
6 | B6 | 170 nM

target: T1, Recombinant human MASP1 enzyme …; assay: cell-based or functional assay

Row | Binder | human MASP1 IC50
7 | B1 | 5.7 nM
8 | B2 | 5.8 nM
9 | B3 | 5.8 nM
10 | B4 | 5.8 nM
11 | B5 | 6 nM
12 | B6 | 6.1 nM
